We go through three molecules from patent publication US20100210525A1 (University of California, published 2010).

The target in experiment [1] is T1, Talin F3 W359A (mouse, UniProt P26039 309-405, limits assumed).
T1 construct: domain: F3 sub-domain; As m1, with the mutation; also called talin (W359A) mutant
Description: ITC. The protocol: (§1) Peptide concentrations were typically at 150 to 300 μM while protein concentrations ranged from 25 to 50 μM. For the W359A mutant, the protein concentration was 50 μM and the peptide concentration was 1 mM. Prior to ITC titrations, the peptides and proteins were in buffer consisting of 200 mM Tris, 300 mM NaCl, pH 7.5. All experiments were conducted at 23 degrees Celsius. […] The bottom panel is the binding curve, calculated using the software program Origin.
(§2) Isothermal titration calorimetry (ITC) was performed on a VP-ITC calorimeter (Microcal, Northampton, Mass.). Aliquots (8 μL) of wildtype ([…]p[…]) (SEQ ID NO: 2) or mutant chimeric peptide were injected into the cell containing wildtype or mutant talin F3 domain. Peptide concentrations were typically 150 to 300 μM while protein concentrations ranged from 25 to 50 μM. For the W359A mutant, the protein concentration was 50 μM and the peptide concentration was 1 mM. Prior to ITC titrations, the peptides and proteins were in 200 mM Tris, 300 mM NaCl, pH 7.5. In each experiment 37 injections were made. The experiments were performed at 23° C. All titrations were performed at least twice and with different protein preparations. Experimental data were analyzed using Microcal Origin software.

The target in experiment [2] is T2, Talin F3 sub-domain, wild type (mouse, UniProt P26039 309-405, limits assumed).
T2 construct: domain: F3 sub-domain; U-15N labelled for NMR; also called Talin F3 wt; talin F3 domain
T2 sequence (P26039 309-405 limits assumed): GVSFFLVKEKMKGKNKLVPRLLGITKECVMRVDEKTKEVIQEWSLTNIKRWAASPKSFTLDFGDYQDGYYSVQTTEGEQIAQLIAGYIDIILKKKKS
The experiment is described as follows: ITC, peptide injected into talin F3, 23 C, 200 mM Tris, 300 mM NaCl, pH 7.5. On the procedure: as §1, §2

The target in experiment [3] is T3, Talin F3 L325R (mouse, UniProt P26039 309-405, limits assumed).
T3 construct: domain: F3 sub-domain; As m1, with the mutation
T3 sequence (P26039 309-405 L325R limits assumed): as the sequence (P26039 309-405 limits assumed) above, with L17R counted along it
The experiment is described as follows: ITC, peptide injected into talin F3 L325R, 23 C, 200 mM Tris, 300 mM NaCl, pH 7.5. The protocol: as §1, §2
A general note: ITC needs no label: the signal is the heat of the interaction.

In experiment [4] the target is T4, Talin F3 Q381V (mouse, UniProt P26039 309-405, limits assumed).
T4 construct: domain: F3 sub-domain; As m1, with the mutation
T4 sequence (P26039 309-405 Q381V limits assumed): as the sequence (P26039 309-405 limits assumed) above, with Q73V counted along it
The experiment is described as follows: ITC, peptide injected into talin F3 Q381V, 23 C, 200 mM Tris, 300 mM NaCl, pH 7.5. On the procedure: as §1, §2

Experiment [5] deals with T1, Talin F3 W359A. The experiment is described as follows: ITC, 1 mM peptide injected into 50 µM talin F3 W359A, 23 C, 200 mM Tris, 300 mM NaCl, pH 7.5. The protocol: as §1, §2

Non-standard residues stand in square brackets, D forms with d. No end group written: not given here. pY = N[C@@H](Cc1ccc(OP(=O)(O)O)cc1)C(=O)O

T1 sequence (P26039 309-405 W359A limits assumed): as the sequence (P26039 309-405 limits assumed) above, with W51A counted along it

B1: β3/PIPKIγ chimeric peptide, wild type (peptide)
peptide: KKLLITIHDRKEFAKFEEERARAKWV[pY]SPLHYSAR
notes: Integrin β3 tail residues N-terminal of W739, PIPKIγ residues C-terminal of it (numbered 740-746 in the deposited structure); also called β3 chimera; β3-integrin/PIPKIγ peptide
In the case of B1, the “fold reduction of affinity against wild-type talin F3” value in experiment [1] is roughly 1000 fold. In addition, the Kd (usually a measure of binding affinity in units of concentration) in experiment [2] was found to be 140 nM; in experiment [3] it was 212 nM; in experiment [4], 135 nM; in experiment [5], 106000 nM.
For the molecule KKLLITIHDRKEAAKFEEERARAKWV[pY]SPLHYSAR (also called β3 chimera F727A; β3-F727A) [β3/PIPKIγ chimeric peptide F727A], the Kd in experiment [2] turned out to be 118 nM.
The same measure, in the same setting: the same measure for KKLLITIHDRKEFAKAEEERARAKWV[pY]SPLHYSAR (also called β3 chimera F730A; β3-F730A) [β3/PIPKIγ chimeric peptide F730A]: 105 nM.
